The results in this text go back to a protein production outcome set (Wang et al. 2014).

A short description of the data set: label from the status in PepcDB records.

For “MAEEKIKKSLLAADDSDDEYSRGDTVSDQTELSSILDKLSLEPKTEKKKLLVLSLSGLLLHRVHKKELRKKPKNRSPDASCGPNLVYKRPFAEEFMKFCLERFEVGIWSSACELVSSLNILIVTGPRECTDSGYKTLENRYKPLFFKDLSKVFKCFKGFSASNTIFIDDEPYKALRNPDNTGLFPMSYDASNIKDNLLDPEGELCSYLEGLAKSSDVQAYIKVHSFGRPMIDSSHPDWSFYSNVSKIVS”, the protein production entry is “failed”.

On to “MAEEKKKKLSIIVFSGTIDKLMPVGILTSGAAASGYEVNLFFTFWGLQAITKRSLNSQQPPQIDKNYEQMGPIMMQKMQEMKYPMWHQLVQQAKEIGEVKVFACSTTMEFFGIKREDLAEFVDDVVGVATFLDRAEGGTTLFI”, for which the protein production entry was “not failed”. Take “MAEEQQPSTDDETAAKSATTKQASPKAETDQSATQPVEDQPTATPEEVAALEKKAADFEDKYLRAEAEVQNMQARFQKEQATLIKYDGQQLAKDVLPVIDNLERALAVEASDDVAAQIKKGVQMTYDHLEDALKRNHVTEIAALGQTFDPTLHQAVQSVPAEDGQTAETVVNVLQKGYQLKDRVLRPAMVVVAQ”: the protein production entry is “failed”. With “MAEGKPDEQLFQLLSGLLQQVESLTNTEEVELRSKIEALGLEVTKVPSKSAQHLNEVEIAKELDKLSAKLDDVDEMISSAIASDPQVQTLLSGTADVWMPVITAGAEERLNFTASLADDDDLSNKETTTDNTSSS” the entry was “not failed”; with “MAEGSSLALPRVSASLHEPARAFSFRLDEGKSPWVEVVITIGSFPRCPEVTMMWPPPPTFSVFLLLLLSQVPSSRPQSPGTKKLRLVGPANRPEEGRLEVLHQGQWGTVCDDDFALQEATVACRQLGFESALTWAHSAKFGQGEGPIWLDNVRCLGTEDTLDQCGSNGWGVSDCRHSEDVGVVCHPRRQQGYHSEKVSNALGPQGRRLEEVRLKPILASAKRHSPVTEGAVEVRYEGHWRQVCDQGWTMNNSRVVCGMLGFPSQAPVNSHYYRKVWNLKMKDPKSRLNGLTKKNSFWIHRVDCLGTEPHLAKCQVQVAPGRGKLRPACPGGMHAVVNCVAGPHFQRQKPKPKRKESGAEELKVRLRSGAQVGEGRVEVLMNRQWGTVCDHRWNLISASVVCRQLGFGSAREALFGAQLGQGLGPIHLSEVRCRGYEQTIGDCLALEGSQNGCQHANDAAVRCNIPDMGFQNKVRLAGGRNSEEGVVEVQVEVNGVPRWGTVCSDHWGLTEAMVTCRQLGLGFANFAIKDTWYWQGTPEAKEVVMSGVRCSGTEMALQQCQRHGPVHCSHGSGRFSAGVACMNSAPDLVMNAQLVQETAYLEDRPLSMLYCAHEENCLSKSADHMDWPYGHRRLLRFSSQIYNLGRADFRPKAGRHSWIWHQCHRHYHSIEVFTHYDLLTLNGSKVAEGHKASFCLEDTNCPSGVQRRYACANFGEQGVAVGCWDTYRHDIDCQWVDITDVSPGDYIFQVVVNPTNDVAESDFSNNMIRCRCKYDGQRVWLHNCHTGDPYRPNAELSLEQEQRLRNNLI”, “failed”. With “MAEHGETQADEEEEEQVWSWGAGTDGQLGTTKLQDELLPQLLSLTSLPSISMLACGGAHVIALTSGGKVFTWGRGSSGQLGHGDILNITLPKLVSFFDDSVITQAAAGWSHSGFVSDSGCIFTCGNGSFGQLGHGDTLSLSTPAKVSHFNNDSVKMVACGMRHSLVLFAGNQVCGFGSGKRGQLGFSSDRIKSVNLPCVVSGLKDVEVVRISANGDHSAAISADGQFFSWGRGFCGGPDVHAPQSLPSPLSFREVAVGWNHALLLTVDGEVFKLGSTLNKQPEKQQLQIDSSEALFEKVPDFDGVKVMQIAAGAEHSAAVTENGEVKTWGWGEHGQLGLGNTNDQTSPELVSLGSIDLRTKEIKVYCGSGFTYAVKRKQELSPTSS” the entry was “failed”; with “MAEILRLSPAICAYPDETYENLKIEVVLPGVEKENISFKVVEDGFYVKATKEGVEYTDSYAVCCPISPEKATATYSNGVLKVNVPYQQPFEKAVDVKIE”, “failed”; with “MAEITENTKKILEVILNLKEGQVMSYRDVGALAGLPNGARQVSRILHSMSKKYELPWWRVVRSDRTIGLPEPAKSEQMELLKKEGISFTAQGKIIIEDELLLEHHHHHH”, “not failed”.

Consider “MAEKRTVRPFAGTERRAKGWIQEAALRMLNNNLHPDVAERPDELIVYGGIGKAARNWECYEAIVDTLLRLENDETLLIQSGKPVAVFRTHPDAPRVLIANSNLVPAWATWDHFHELDKKGLIMYGQMTAGSWIYIGSQGIVQGTYETFAEVARQHFGGTLAGTITLTAGLGGMGGAQPLAVTMNGGVCLAIEVDPARIQRRIDTNYLDTMTDSLDAALEMAKQAKEEKKALSIGLVGNAAEVLPRLVETGFVPDVLTDQTSAHDPLNGYIPAGLTLDEAAELRARDPKQYIARAKQSIAAHVRAMLAMQKQGAVTFDYGNNIRQVAKDEGVDDAFSFPGFVPAYIRPLFCEGKGPFRWVALSGDPEDIYKTDEVILREFSDNERLCHWIRMAQKRIKFQGLPARICWLGYGERAKFGKIINDMVAKGELKAPIVIGRDHLDSGSVASPNRETEGMKDGSDAIADWPILNALLNAVGGASWVSVHHGGGVGMGYSIHAGMVIVADGTKEAEKRLERVLTTDPGLGVIRHADAGYELAIRTAKEKGIDMPMLK”, for which the protein production entry is reported as “not failed”.

For the sequence “MAEKVKSGQVFNLLCIFSIFFFLFVLSVNVSADVDSERAVPSEDKTTTVWLTKIKRSGKNYWAKVRETLDRGQSHFFPPNTYFTGKNDAPMGAGENMKEAATRSFEHSKATVEEAARSAAEVVSDTAEAVKEKVKRSVSGGVTQPSEGSEEL”, the protein production entry was “failed”. Under “MAELYVKPGNKERGWNDPPQFSYGLQTQTGGPKRTPLTKRVAAPQDGSPRAPETSGPPPVDHPPPSSKASRPPPMGSCPATGVEPPSSPVIESETLIEDVLRPLEQALEDCHGHTKKQVCDDISRRLALLREQWAGGKLSIPVKKRMALLVQELLHHQWDAADDIHRSLMVDHVTEVSQWMVGVKRLIAEKKSLSSEETKEEKFTVEPENQTIPGFQQPS” stands “not failed”; under “MAEPLQPDPGAAEDAAAQAVETPGWKAPEDAGPQPGSYEIRHYGPAKWVSTSVESMDWDSAIQTGFTKLNSYIQGKNEKEMKIKMTAPVTSYVEPGSGPFSESTITISLYIPSEQQFDPPRPLESDVFIEDRAEMTVFVRSFDGFSSAQKNQEQLLTLASILREDGKVFDEKVYYTAGYNSPVKLLNRNNEVWLIQKNEPTKENE”, “failed”; under “MAERAMSVTPYWELTFDADGDVDGRERDRLLAQVAQRKVHDLVVFAHGWNNERSGATRLYSRFFQPVPALAPRARLGYVGVVWPSMIFPDEPIPDFPASVPAEVTAVARPALAKGARQALVEVFPDRATLVEQIARLLERHPDEEASLETFGQLVRLLVEARPQDPQDACAADTLATGGPVSGPEMLSGDTALVCRDFARALDRVASLHGTSAASGAVDFSFTPAGLWDGAHELLRQATYYAMKRRAGTVGERGLGRVLGRLAQAAPDVRVHLVGHSFGGRLVSFALRGLPAGVRTVKSVTLLQGAFSHYAFAARLPHDTHASGALHGLQSRIDGPLVCCYSHFDSALGTMYPLASRMAGDARSAAGELGADFDIGRTLGPRWGAMGHDGVQAVDGTRAFTLAEALRAELPASGCVNVDAAAVVKRGGPPTGAHSDIVHRELAQVVLAAGRIR”, “failed”. On to “MAERTLVKPCTSVPPTMVRVPNVTRADALAAARNPLALIAERWTPAPRTVRRAALAALVMAVVIVVTGGAVRLTGSGLGCPTWPKCTDDSLTTTSAMGFHGVIEFGNRMLTYVLCAAVGWAIIAARSQKPWRRSLTRLGWAQFWIVMSNAILGGIVVLVGLNPYTVAAHFLLSTALIAVATLMWQRACEGDGAPRPLVGKAVQQLVWFLVTASVLLIAVGTVVTGAGPHAGDSSDVERMPLDWETVSKLHAVLAWIVVTLTFALWFVLKAVDAPKGPLHRTRDLFLILLAQGVIGYVQYFTDLPEALVALHMLGSCLVWIGVLRVLLSLRERPEAVADLPGPSTESALTRA”, for which the protein production entry is given as “failed”.

Consider “MAESVRLPTPYNRKTEIRPMFTEIILFLLDTVFTLFGMALLLRLWMQLSRLPSRNPVSQGVFQVTDWIVRPLRRIIPGLGGIDWATVFAAYLTAVAFLLCRALVLGADPLGFLPVILALGVLSMLKWGISMVMWVTLLMAVLSWVNPNSPLAAPIWHLTAPLLRPIQRVVPRLGGFDISPLILFVIAQILLMVIANVSRGVA”, for which the protein production result is recorded as “failed”.
